This assay concerns the target T1, ΔN-CXCL13 (murine CXCL13 residues 31-109 with the initiating methionine) (murine).
T1 chain: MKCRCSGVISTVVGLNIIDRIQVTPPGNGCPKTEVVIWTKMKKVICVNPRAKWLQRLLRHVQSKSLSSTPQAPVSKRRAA
The assay can be described thus: NMR titration; [15N,1H] correlation spectra at different protein concentrations; monomer and dimer signals in slow exchange; KD of dimer to monomers from integrated signals of monomer and dimer; T1/T2 relaxation; 20 mM phosphate, 100 mM NaCl, pH 6, 298 K; addition of HS tetrasaccharide dp4 (50 µM on 50 µM ΔN-CXCL13) increases the dimer signals. The settings on record: both partners purified.

B1: ΔN-CXCL13 (murine CXCL13 residues 31-109 with the initiating methionine) (domain or fragment)
chain: MKCRCSGVISTVVGLNIIDRIQVTPPGNGCPKTEVVIWTKMKKVICVNPRAKWLQRLLRHVQSKSLSSTPQAPVSKRRAA
modifications: initiating Met kept (piece 1); paper residue numbers are mature, offset +21 to the precursor; two disulfides expected from the chemokine fold / initiating Met kept (piece 1); paper residue numbers …
A word on the Kd: it is the concentration at which binding is half-saturated. Higher therefore signals lower affinity. In general, stoichiometry N refers to the number of molecules, sites or subunits per partner or assembly. Consider B1, for which the Kd amounted to 300 ± 100 µM and the “stoichiometry N” value came to 2.
